This note sets out measurements from US20150374794A1 (Novo Nordisk, published 2015).

Numbered stars: 1 amine (or outer) side, 2 acyl side, 3 side chain; on linkers, the order of the positions; unused ones are H or OH. Square brackets hold non-standard residues; d marks the D form. Side chains are listed from the residue outwards. Ends that are not written are not given here. * marks the point of attachment. C18 diacid = O=C(O)CCCCCCCCCCCCCCCCC(=O)*; γGlu = O=C(O)[C@H](CCC(=O)[*:2])N[*:1]; Ac4c = NC1(C(=O)O)CCC1; AEEA = NCCOCCOCC(=O)O; Aib = CC(C)(N)C(=O)O

Test [1] has as its target T1, human GLP-1 receptor (human, UniProt P43220 24-463). Nature of the test: cell-based or functional assay.
Test [2] concerns the target T2, human glucagon receptor (human, UniProt P47871 26-477). Nature of the test: cell-based or functional assay.
In test [3] the target is T1, human GLP-1 receptor. Nature of the test: displacement of 125I-GLP-1(7-36)NH2, membranes with human GLP-1R, SPA. As to the method:
The receptor binding of each compound to the human GLP-1 receptor was measured in a displacement binding assay. […] Each derivative was added in a series of concentrations to isolated membranes containing the human GLP-1 receptor and displacement of the labelled ligand was monitored. The receptor binding was reported as the concentration at which half of the labelled ligand was displaced from the receptor, the IC₅₀ value.
On the technique in general: Displacement assays read how much labelled ligand stays bound in the presence of the test substance.

Test [4] deals with T2, human glucagon receptor. Nature of the test: displacement of 125I-glucagon, membranes with human glucagon receptor, SPA. As to the method: The receptor binding of each compound to the human glucagon receptor was measured in a displacement binding assay. […] Each derivative was added in a series of concentrations to isolated membranes containing the human glucagon receptor and displacement of the labelled ligand is monitored. The receptor binding was reported as the concentration at which half of the labelled ligand is displaced from the receptor, the IC₅₀ value.

T2 sequence (P47871 26-477): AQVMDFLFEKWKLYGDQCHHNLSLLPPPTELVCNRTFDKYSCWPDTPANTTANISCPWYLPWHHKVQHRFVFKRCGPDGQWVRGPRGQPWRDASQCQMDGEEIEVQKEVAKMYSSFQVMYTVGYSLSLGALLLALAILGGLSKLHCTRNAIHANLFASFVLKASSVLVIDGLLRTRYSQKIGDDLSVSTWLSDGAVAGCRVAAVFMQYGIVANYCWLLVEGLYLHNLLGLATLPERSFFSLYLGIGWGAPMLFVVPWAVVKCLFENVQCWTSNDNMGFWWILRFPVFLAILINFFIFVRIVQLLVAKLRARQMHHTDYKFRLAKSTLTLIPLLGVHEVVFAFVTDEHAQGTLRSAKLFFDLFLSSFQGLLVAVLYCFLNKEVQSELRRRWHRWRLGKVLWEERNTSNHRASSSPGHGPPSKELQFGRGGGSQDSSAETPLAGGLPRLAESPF

With H[Aib]QGTFTSDLSKYLESRRAREFVQWLLKT-NH2 (not fully specified (residue 28)), the “EC50 GLP-1R, CRE luciferase reporter gene assay in BHK cells” value (from here on “EC50 GLP-1R”) in the test with human GLP-1 receptor [1] stood at 0.0044 nM. Further, the “EC50 GlucR, CRE luciferase reporter gene assay in BHK cells” value (“EC50 GlucR” below) in the test with human glucagon receptor [2] was 0.0624 nM. The IC50 (as a rule, the concentration that inhibits the measured activity by half) in the test with human GLP-1 receptor [3] amounted to 0.4 nM; in the test with human glucagon receptor [4] it was 6.7 nM.

On to H[Aib]QGTFTSDLSKYLDKKAAREFVAWLLNT-NH2 (not fully specified), for which the IC50 came out at 0.2 nM with human GLP-1 receptor [3] and 53 nM in the test with human glucagon receptor [4].

Turning to H[Aib]QGTFTSDLSKYLESKRAREFVQWLLK([γGlu-γGlu-Ser-Glu-Ser-γGlu-γGlu-C18 diacid])T-NH2, in the test with human GLP-1 receptor [1], the “EC50 GLP-1R” value came out at 0.0027 nM. Further, the half-maximal inhibitory concentration (IC50) worked out at 0.2 nM with human GLP-1 receptor [3] and 1.7 nM in the test with human glucagon receptor [4].

For H[Ac4c]QGTFTSDLSKYLESKRAREFVQWLLK([γGlu-γGlu-Ser-Glu-Ser-γGlu-γGlu-C18 diacid])T-NH2, the “EC50 GlucR” value in the test with human glucagon receptor [2] came to 0.005 nM. Besides, the IC50 with human GLP-1 receptor [3] worked out at 0.3 nM; in the test with human glucagon receptor [4], 0.6 nM.

As to H[Ac4c]QGTFTSDLSKYLESKRAREFVQWLLK([Gly-Ser-Glu-Gly-Ser-γGlu-γGlu-C18 diacid])T-NH2, in the test with human glucagon receptor [2], the “EC50 GlucR” value was 0.004 nM. Further, the IC50 with human GLP-1 receptor [3] stood at 0.2 nM; in the test with human glucagon receptor [4], 0.6 nM.

B1: N^ε16-[(4S)-4-carboxy-4-[[(4S)-4-carboxy-4-[[2-[2-[2-[[(4S)-4-carboxy-4-[[(4S)-4-carboxy-4-(17-carboxyheptadecanoylamino)butanoyl]amino]butanoyl]amino]ethoxy]et … (peptide)
peptide: H[Aib]QGTFTSDLSKYLDK([γGlu-γGlu-AEEA-γGlu-γGlu-C18 diacid])RRAQEFVQWLLNT-NH2
modifications: N-terminus assumed
SMILES: CC(C)C[C@H](NC(=O)[C@H](Cc1ccc(O)cc1)NC(=O)[C@H](CCCCN)NC(=O)[C@H](CO)NC(=O)[C@H](CC(C)C)NC(=O)[C@H](CC(=O)O)NC(=O)[C@H](CO)NC(=O)[C@@H](NC(=O)[C@H](Cc1ccccc1)NC(=O)[C@@H](NC(=O)CNC(=O)[C@H](CCC(N)=O)NC(=O)C(C)(C)NC(=O)[C@@H](N)Cc1c[nH]cn1)[C@@H](C)O)[C@@H](C)O)C(=O)N[C@@H](CC(=O)O)C(=O)N[C@@H](CCCCNC(=O)CC[C@H](NC(=O)CC[C@H](NC(=O)COCCOCCNC(=O)CC[C@H](NC(=O)CC[C@H](NC(=O)CCCCCCCCCCCCCCCCC(=O)O)C(=O)O)C(=O)O)C(=O)O)C(=O)O)C(=O)N[C@@H](CCCNC(=N)N)C(=O)N[C@@H](CCCNC(=N)N)C(=O)N[C@@H](C)C(=O)N[C@@H](CCC(N)=O)C(=O)N[C@@H](CCC(=O)O)C(=O)N[C@@H](Cc1ccccc1)C(=O)N[C@H](C(=O)N[C@@H](CCC(N)=O)C(=O)N[C@@H](Cc1c[nH]c2ccccc12)C(=O)N[C@@H](CC(C)C)C(=O)N[C@@H](CC(C)C)C(=O)N[C@@H](CC(N)=O)C(=O)N[C@H](C(N)=O)[C@@H](C)O)C(C)C
As for B1, the “EC50 GLP-1R” value with human GLP-1 receptor [1] worked out at 0.0266 nM. Also, in the test with human glucagon receptor [2], the “EC50 GlucR” value was found to be 0.0588 nM. Also, the IC50 with human GLP-1 receptor [3] stood at 1.4 nM; with human glucagon receptor [4], 5.9 nM.

As to H[Aib]QGTFTSDLSKYLESKRAREFVQWLLK([Gly-Ser-Glu-Gly-Ser-γGlu-γGlu-C18 diacid])T-NH2, the “EC50 GLP-1R” value in the test with human GLP-1 receptor [1] was 0.0057 nM. In addition, the concentration for half-maximal inhibition (IC50) with human GLP-1 receptor [3] came out at 0.2 nM; in the test with human glucagon receptor [4], 5.1 nM.

B2: N^ε16-[(4S)-4-carboxy-4-[[(4S)-4-carboxy-4-[[2-[2-[2-[[2-[2-[2-[[(4S)-4-carboxy-4-(17-carboxyheptadecanoylamino)butanoyl]amino]ethoxy]ethoxy]acetyl]amino]ethoxy … (peptide)
peptide: H[Aib]QGTFTSDLSKYLDK([γGlu-γGlu-AEEA-AEEA-γGlu-C18 diacid])RRAREFVQWLLNT-NH2
modifications: N-terminus assumed
SMILES: CC(C)C[C@H](NC(=O)[C@H](Cc1ccc(O)cc1)NC(=O)[C@H](CCCCN)NC(=O)[C@H](CO)NC(=O)[C@H](CC(C)C)NC(=O)[C@H](CC(=O)O)NC(=O)[C@H](CO)NC(=O)[C@@H](NC(=O)[C@H](Cc1ccccc1)NC(=O)[C@@H](NC(=O)CNC(=O)[C@H](CCC(N)=O)NC(=O)C(C)(C)NC(=O)[C@@H](N)Cc1c[nH]cn1)[C@@H](C)O)[C@@H](C)O)C(=O)N[C@@H](CC(=O)O)C(=O)N[C@@H](CCCCNC(=O)CC[C@H](NC(=O)CC[C@H](NC(=O)COCCOCCNC(=O)COCCOCCNC(=O)CC[C@H](NC(=O)CCCCCCCCCCCCCCCCC(=O)O)C(=O)O)C(=O)O)C(=O)O)C(=O)N[C@@H](CCCNC(=N)N)C(=O)N[C@@H](CCCNC(=N)N)C(=O)N[C@@H](C)C(=O)N[C@@H](CCCNC(=N)N)C(=O)N[C@@H](CCC(=O)O)C(=O)N[C@@H](Cc1ccccc1)C(=O)N[C@H](C(=O)N[C@@H](CCC(N)=O)C(=O)N[C@@H](Cc1c[nH]c2ccccc12)C(=O)N[C@@H](CC(C)C)C(=O)N[C@@H](CC(C)C)C(=O)N[C@@H](CC(N)=O)C(=O)N[C@H](C(N)=O)[C@@H](C)O)C(C)C
As for B2, the “EC50 GLP-1R” value in the test with human GLP-1 receptor [1] was found to be 0.0092 nM. Also, in the test with human glucagon receptor [2], the “EC50 GlucR” value stood at 0.0423 nM. In addition, the figures for the IC50 in the test with human GLP-1 receptor [3] and in the test with human glucagon receptor [4] were 0.5 nM and 1.2 nM, respectively.

B3: N^ε16-[(4S)-4-carboxy-4-[[2-[2-[2-[[2-[2-[2-[[(4S)-4-carboxy-4-[[(4S)-4-carboxy-4-(17-carboxyheptadecanoylamino)butanoyl]amino]butanoyl]amino]ethoxy]ethoxy]acet … (peptide)
peptide: H[Aib]HGTFTSDLSKYLEK([γGlu-AEEA-AEEA-γGlu-γGlu-C18 diacid])RRAREFVAWLLST-NH2
modifications: N-terminus assumed
SMILES: CC(C)C[C@H](NC(=O)[C@H](Cc1c[nH]c2ccccc12)NC(=O)[C@H](C)NC(=O)[C@@H](NC(=O)[C@H](Cc1ccccc1)NC(=O)[C@H](CCC(=O)O)NC(=O)[C@H](CCCNC(=N)N)NC(=O)[C@H](C)NC(=O)[C@H](CCCNC(=N)N)NC(=O)[C@H](CCCNC(=N)N)NC(=O)[C@H](CCCCNC(=O)CC[C@H](NC(=O)COCCOCCNC(=O)COCCOCCNC(=O)CC[C@H](NC(=O)CC[C@H](NC(=O)CCCCCCCCCCCCCCCCC(=O)O)C(=O)O)C(=O)O)C(=O)O)NC(=O)[C@H](CCC(=O)O)NC(=O)[C@H](CC(C)C)NC(=O)[C@H](Cc1ccc(O)cc1)NC(=O)[C@H](CCCCN)NC(=O)[C@H](CO)NC(=O)[C@H](CC(C)C)NC(=O)[C@H](CC(=O)O)NC(=O)[C@H](CO)NC(=O)[C@@H](NC(=O)[C@H](Cc1ccccc1)NC(=O)[C@@H](NC(=O)CNC(=O)[C@H](Cc1c[nH]cn1)NC(=O)C(C)(C)NC(=O)[C@@H](N)Cc1c[nH]cn1)[C@@H](C)O)[C@@H](C)O)C(C)C)C(=O)N[C@@H](CC(C)C)C(=O)N[C@@H](CO)C(=O)N[C@H](C(N)=O)[C@@H](C)O
For B3, the “EC50 GLP-1R” value in the test with human GLP-1 receptor [1] was found to be 0.0327 nM. In addition, the “EC50 GlucR” value with human glucagon receptor [2] was found to be 0.0068 nM. Moreover, the IC50 was determined as 3.9 nM in the test with human GLP-1 receptor [3] and 1.9 nM with human glucagon receptor [4].

B4: N^ε16-[(4S)-4-carboxy-4-[[(4S)-4-carboxy-4-[[2-[2-[2-[[2-[2-[2-[[(4S)-4-carboxy-4-(17-carboxyheptadecanoylamino)butanoyl]amino]ethoxy]ethoxy]acetyl]amino]ethoxy … (peptide)
peptide: H[Aib]QGTFTSDLSKYLDK([γGlu-γGlu-AEEA-AEEA-γGlu-C18 diacid])KRAQEFVQWLLNT-NH2
modifications: N-terminus assumed
SMILES: CC(C)C[C@H](NC(=O)[C@H](Cc1ccc(O)cc1)NC(=O)[C@H](CCCCN)NC(=O)[C@H](CO)NC(=O)[C@H](CC(C)C)NC(=O)[C@H](CC(=O)O)NC(=O)[C@H](CO)NC(=O)[C@@H](NC(=O)[C@H](Cc1ccccc1)NC(=O)[C@@H](NC(=O)CNC(=O)[C@H](CCC(N)=O)NC(=O)C(C)(C)NC(=O)[C@@H](N)Cc1c[nH]cn1)[C@@H](C)O)[C@@H](C)O)C(=O)N[C@@H](CC(=O)O)C(=O)N[C@@H](CCCCNC(=O)CC[C@H](NC(=O)CC[C@H](NC(=O)COCCOCCNC(=O)COCCOCCNC(=O)CC[C@H](NC(=O)CCCCCCCCCCCCCCCCC(=O)O)C(=O)O)C(=O)O)C(=O)O)C(=O)N[C@@H](CCCCN)C(=O)N[C@@H](CCCNC(=N)N)C(=O)N[C@@H](C)C(=O)N[C@@H](CCC(N)=O)C(=O)N[C@@H](CCC(=O)O)C(=O)N[C@@H](Cc1ccccc1)C(=O)N[C@H](C(=O)N[C@@H](CCC(N)=O)C(=O)N[C@@H](Cc1c[nH]c2ccccc12)C(=O)N[C@@H](CC(C)C)C(=O)N[C@@H](CC(C)C)C(=O)N[C@@H](CC(N)=O)C(=O)N[C@H](C(N)=O)[C@@H](C)O)C(C)C
Take B4: the half-maximal inhibitory concentration (IC50) with human GLP-1 receptor [3] stood at 2.4 nM; with human glucagon receptor [4] it was 1.1 nM.
